Laboratory results as given in patent publication US20170189507A1.

Each binder was assayed against HLA-A*24 (human) (assay: UV-ligand exchange ELISA).

TYTTVPRVAF [peptide SEQ ID No 172] and DYTTWTALL [peptide SEQ ID No 165] cannot be ordered by peptide exchange yield: > 75% for the first, > 75% for the second.

IFIEVFSHF [peptide SEQ ID No 178] and EYSLFPGQVVI [peptide SEQ ID No 197] fall in the same range of peptide exchange yield: 50 to 75% for the first, 50 to 75% for the second.

Compared with KFSSFSLFF [peptide SEQ ID No 164], IFPQFLYQF [peptide SEQ ID No 186] is higher in peptide exchange yield: 50 to 75% for the first, > 75% for the second.

KYIPYKYVI [peptide SEQ ID No 223] and VYVSDIQEL [peptide SEQ ID No 288] fall in the same range of peptide exchange yield: 50 to 75% for the first, 50 to 75% for the second.

First: TYTQDFNKF [peptide SEQ ID No 208]
Second: IYLVSIPEL [peptide SEQ ID No 161]
The peptide exchange yield of the first is lower: 50 to 75% for the first, > 75% for the second.

VFKASKITF [peptide SEQ ID No 191] and LYLKLWNLI [peptide SEQ ID No 214] fall in the same range of peptide exchange yield: 50 to 75% for the first, 50 to 75% for the second.

AYLHSHALI [peptide SEQ ID No 274] and TYLRDQHFL [peptide SEQ ID No 187] cannot be ordered by peptide exchange yield: > 75% for the first, > 75% for the second.

VYPWLGALL [peptide SEQ ID No 177] and QYLQDAYSF [peptide SEQ ID No 272] cannot be ordered by peptide exchange yield: > 75% for the first, > 75% for the second.

Compared with IYQLDTASI [peptide SEQ ID No 182], KYQDILETI [peptide SEQ ID No 168] is higher in peptide exchange yield: 50 to 75% for the first, > 75% for the second.

Compared with KYMVYPQTF [peptide SEQ ID No 267], YYVYIMNHL [peptide SEQ ID No 225] is lower in peptide exchange yield: > 75% for the first, 50 to 75% for the second.

First: RYISDQLFTNF [peptide SEQ ID No 278]
Second: LYIDRPLPYL [peptide SEQ ID No 196]
The peptide exchange yield of the first is higher: > 75% for the first, 50 to 75% for the second.

First: VYEDQVGKF [peptide SEQ ID No 170]
Second: IYKVGAPTI [peptide SEQ ID No 185]
The peptide exchange yield of the first is lower: 20 to 49% for the first, 50 to 75% for the second.

IYDDSFIRPVTF [peptide SEQ ID No 180] and VYVGGGQIIHL [peptide SEQ ID No 174] fall in the same range of peptide exchange yield: 50 to 75% for the first, 50 to 75% for the second.

First: VYTLDIPVL [peptide SEQ ID No 160]
Second: WYVNGVNYF [peptide SEQ ID No 189]
The peptide exchange yield of the first is higher: > 75% for the first, 20 to 49% for the second.

EYNQWFTKL [peptide SEQ ID No 176] and VHIPEVYLI [peptide SEQ ID No 205] fall in the same range of peptide exchange yield: 50 to 75% for the first, 50 to 75% for the second.

VYRDETGELF [peptide SEQ ID No 226] and AYTLIAPNI [peptide SEQ ID No 169] fall in the same range of peptide exchange yield: 50 to 75% for the first, 50 to 75% for the second.

TYGDAGLTYTF [peptide SEQ ID No 283] and LYLDKATLI [peptide SEQ ID No 198] fall in the same range of peptide exchange yield: 50 to 75% for the first, 50 to 75% for the second.

First: TYIESASEL [peptide SEQ ID No 279]
Second: MYDSYWRQF [peptide SEQ ID No 179]
The peptide exchange yield of the first is lower: 50 to 75% for the first, > 75% for the second.

First: IYSWILDHF [peptide SEQ ID No 173]
Second: QYLENLEKL [peptide SEQ ID No 224]
The peptide exchange yield of the first is higher: > 75% for the first, 50 to 75% for the second.

IFLDYEAGTLSF [peptide SEQ ID No 227] and RFHPTPLLL [peptide SEQ ID No 193] cannot be ordered by peptide exchange yield: > 75% for the first, > 75% for the second.

First: RYPDNLKHLYL [peptide SEQ ID No 280]
Second: LFIPSSKLLFL [peptide SEQ ID No 171]
The peptide exchange yield of the first is higher: > 75% for the first, 50 to 75% for the second.

KYPVEWAKF [peptide SEQ ID No 289] and LYNKGFIYL [peptide SEQ ID No 159] cannot be ordered by peptide exchange yield: > 75% for the first, > 75% for the second.

TYSVSFPMF [peptide SEQ ID No 195] and FFPPTRQMGLLF [peptide SEQ ID No 217] cannot be ordered by peptide exchange yield: > 75% for the first, > 75% for the second.

Compared with EYINQGDLHEF [peptide SEQ ID No 275], EFGSLHLEFL [peptide SEQ ID No 194] is lower in peptide exchange yield: 50 to 75% for the first, < 20% for the second.

RYSTGLAGNLL [peptide SEQ ID No 221] and VFTRVSSFL [peptide SEQ ID No 162] fall in the same range of peptide exchange yield: 50 to 75% for the first, 50 to 75% for the second.

First: YFDKVVTL [peptide SEQ ID No 215]
Second: KYTSWYVAL [peptide SEQ ID No 228]
The peptide exchange yield of the first is lower: 20 to 49% for the first, > 75% for the second.

RYLNKAFHI [peptide SEQ ID No 284] and VFTSTARAF [peptide SEQ ID No 183] fall in the same range of peptide exchange yield: 50 to 75% for the first, 50 to 75% for the second.

First: KFVDSTFYL [peptide SEQ ID No 282]
Second: RYPDNLKHL [peptide SEQ ID No 286]
The peptide exchange yield of the first is higher: > 75% for the first, 20 to 49% for the second.

Compared with EYPLVINTL [peptide SEQ ID No 219], IYTMIYRNL [peptide SEQ ID No 210] is higher in peptide exchange yield: 50 to 75% for the first, > 75% for the second.

First: NYINRILKL [peptide SEQ ID No 167]
Second: RYFKGLVF [peptide SEQ ID No 188]
The peptide exchange yield of the first is higher: > 75% for the first, 50 to 75% for the second.

VFQNFPLLF [peptide SEQ ID No 184] and YYVESGKLF [peptide SEQ ID No 166] cannot be ordered by peptide exchange yield: > 75% for the first, > 75% for the second.

First: GFFIFNERF [peptide SEQ ID No 190]
Second: QYSSVFKSL [peptide SEQ ID No 216]
The peptide exchange yield of the first is lower: 50 to 75% for the first, > 75% for the second.

YYEVHKELF [peptide SEQ ID No 175] and YYLEVGKTLI [peptide SEQ ID No 211] cannot be ordered by peptide exchange yield: > 75% for the first, > 75% for the second.

First: DYLKGLASF [peptide SEQ ID No 163]
Second: EYQENFLSF [peptide SEQ ID No 206]
The peptide exchange yield of the first is higher: > 75% for the first, 50 to 75% for the second.

Compared with TYIKPISKL [peptide SEQ ID No 273], LYLDIINLF [peptide SEQ ID No 181] is higher in peptide exchange yield: 50 to 75% for the first, > 75% for the second.

HYSQELSLLYL [peptide SEQ ID No 158] and VYGFQWRHF [peptide SEQ ID No 276] cannot be ordered by peptide exchange yield: > 75% for the first, > 75% for the second.

Compared with SYALLTYMI [peptide SEQ ID No 192], FYSRLLQKF [peptide SEQ ID No 203] is lower in peptide exchange yield: > 75% for the first, 50 to 75% for the second.

In the case of LYHDIFSRL [peptide SEQ ID No 271], the peptide exchange yield is reported as > 75%.
